Experimental data taken from the DeepSol protein solubility set.

Assay: soluble on expression in E. coli; label from the status in PepcDB or PDB records

Sequence	soluble on expression in E. coli
METSIFDDVETRIDNNEIIAQQHAEDLFELYLKIQNAEKDSVIDIRKEASADHEEMLCELRNDLSQVMKMGMVNLSMQIIAQERNNRRKVNQHIINIKSKTEEIDKFFQRAISVLGAPPGYPAKKEEKAKTKNYLIQFGEVLLSISTMVTNLEQSLACYELKEVLMNGMISQIRTQISDFNKVIPNFKRILNSENQEIDPDNYEKFVDMKKRLFAMVNCLHLISEKRGEMNRLIEEKMNLSMPQFQNLQISNGT	not soluble
MAHHHHHHMSETSACPLNDFFDIDEENNLDEIKKEEKDVFSGNFLSYIYNQFEFCCINFFDELKKKDKRKNITLKKNYSDGYSKNDNGQCYYNVFDKILKKDVDTIKEVSLHSIYFNPHADWCECAHEFNLELNHEEAEFCIFNFFLKMYRYEERNKDLLLSILLECLYSKKDMKKAFHIQKENLKFLKEIKNIETSNFKESLNELINIIENTNFIQFNANEKKDMQKYYFKLYIIIKIKYPYGIYIFNCDDVYDIVVIDCNTFMQNKPKIMSFLSLRKFISFLNNIYSININEENIYDSFPIIVYESKECYHLSHSHLPLNLTACTPKEKKKNSVKNHLNQSGNENENENKD	not soluble
MERDGCFGNCWLRRWEKSDMNRKGFGGHRDAKQLSRTKNRFARLDPDTQSRYEDDDEPAVPVRASLTSASSRGRGGSSRGFGQSAASIANTGVRNADIVYKCRATGAAKKVDAKWLIKQLNQIIENFKPLLWTDNARGDFEWYVRDEDTASTIRANNRRVVHKESGTRVEFYTSKVPAPWMKLKREEIEIIHRVVDKRHNAENRVLDLSNFHEDEEFKAKDMMMNLTKGNVMLTVLDHIDDKYGNIVALSLSNNRIRHLDYASALVSIAKFVMELDLSHNHISTEKELEKFAGLPVERFFFEGNPVVESFTQRAAYISYIHQSFPRCNMLDGVEVQPLVVGPDLDIHDAMPFRAGYYPNPQIRVLVEQFVTSYFDFYDGPDGQRTRRNLHNAYDADASTFSLTIEHLRGSSHARHHNDECFAQYAGVSHNVLKQERFARHRASRSARGAMDIAVALSKLPTSSHMRDTFIVDVFLQSNDLLGFTVQGLFCDGDLTQTPSPSFFSRSFLVSPRENDSVAVISDQLFITVASLDRLEKFKKLYDQSIANGAAVEQVSAVQIAQIGVNGMGFDGAPALPIREEMIKAMCQFSGMIPPFSEKCLADCAWNFDFACQKFNEIKSSVPAEAFAH	not soluble
MSLSQFKPTWMVKNIYDLTPAQLRANGIKVILTDLDNTLIAWNNPDGTPELRHWLTLLELAGIRVIVVSNNNRKRVDRAVAPFNLDYIHRALKPLSWGILRALRRWHLNRDEVVMVGDQLLTDVWAAHHSGVRSVLVKPILKSDAWVTKGNRLMEKVVMWRLRHNYPELTWQEDLDERKAHEGHHHHHH	soluble
MGSDKIHHHHHHMNPIQHILDTYPLIVLDGAMATELERKGCNLNDSLWSAKILMEEPELIKQVHTDYFAAGADCAITASYQSTFEGFAARGLSEAEARRLIELSVSIAAEARDEFWSLEENRLNRPKPIIAASIGPYGAYLADGSEYRGNYAISEDELIEFHRPRMKALIEAGADVLACETIPCLTEAKAIVRLLKEFPETYAWISFSAKDGLHISDGTPAADCASWLDEHRQIAALGINCTPLQHIPSLIEELKKNTSKPIIVYPNSGEQYDPETKTWNGAACAESYGASARTWHEKGARLIGGCCRTKPENIQEIAAWARSLKTT	not soluble
MSLRATWGDVRQGLWMSLTRAGLLHLNADPDPKNWRPHILVLSGAPRRRWPVIELASALTHNQALMTVGTVLRPSEASDFEAQREAEATLREYLGSRGVQSLVRTTTAEDPFAGGERLIEDYGLGVLKPNTIMLGHTEDPTHHEQFCTLIKHLYAARRNVAVLRGGNQGFGNRERIDVWWSGLKGNGGLMKILAYLLQTNLEWQNAQVRVNVVADDDEEAEEQRQTVGPILDQLRTGAALNVIEADGRIFDEIVHDASADADIVFLGMATPDEEGDYVTYYTRLHERTAGLPPTVFVLAAEEISFRDVLALEHHHHHH	not soluble
MFRRARPLRKTTRINGLERNGLKRSGRGWNAPGADVLARHCPLLPGRADAIGRGRLIVATWPKSAAKQRQNVPPARSRTRWRSMSSCHRSGPQKRGRDSGAVTAVTGAPNGQATAFVSLNDEVDAVAAAANLWVRAKSPLHGHAEHLRCEARLATFGARRQRQRVRGRARPECPRRRRSAMADMPPSAP	not soluble
MNDEIKVSVLIITYNQARFIKKAIESALEQKTKFKYEIIVMDDCSSDSTIKIAGKYAEKYTDIIKVYSNNKNLGITKNYKEGFKKCRGEYIAVLEGDDYWNNKQKLQIQSNFLDRHKNFSAVFNRYIIYNAINNSKATQAWRSNTSYETITIEQLTRGNVIGNFSTCMYRKSCVDKVKESLYDMLVYDWMFNMVIAEQKPIAYLPQICSVYRIHSRGTWMGNSVKNRLALTIKLIDVYNAFFGFKYNSNFKLLKKNVYKQLINLEHHHHHH	soluble
MLPSQHKLSNSEQFRATIRKGKRAGRSTVVLHFYAEATAGNLATAGGPRFGLVVSKAVGNAVTRHRVSRQLRHVVIAMKDQFPASSHVVVRALPPAATASSEELRADVQAALDKLNRKR	not soluble
MSLENPYQLVEDIEGIGFKRADNLAEQIGIAADSPRRIRAAILHQIFQHAVQTGDTYVPAETLLQQTIRILETSRPIEIQPDQVATVIIQLVEEGKIQQEETNLYENSLYFSEWGIGNSIQRLLSRKKEIHYPEKEVQKNIRRIEKIFGIQYGPSQEQAIAEAIRSPLFILTGGPGTGKTTVINGIVNLFAELNGLELDPSKYTQEIFPILLAAPTGRAAKRMNETTGLPASTIHRLLGLNGREKTPSVSTKELEGGLLIVDEMSMVDTWLANTLFKAIPTNMQVILVGDKDQLPSVGPGQVLHDLLEIEQIPKMELNQIYRQGDGSSIIPLAHEIKEGRLPKDFTKNQKDRSYFRSDAYQIEPLISKIVEKAKNKGFRAQDIQVLAPMYRGPAGIDALNKMMQEIFNPGKPGKKEVHWNDTVYRIGDKVLQLVNTPELNVFNGDMGEITGIILAKDSEDKVDELVIQFDANEVTYKRNEWNKITLSYCCSIHKSQGSEFKMVILPMVHQYQRMLQRNLLYTAVTRSKELLILLGEEQAYVTCVANESASRMTTLKSRIMDNDKMNEGHHHHHH	soluble
MGSDKIHHHHHHMIDVTFDPTLANTLAQSLKLTAIALPLDLQIGDLTRLTDAKNSYWGLKARYTKSGGASAEFAAVTTSQQRLQQVLATGATLRVWTSVNPADQLGWGWLCSQLVQAQFMGVIQRIQIPLSGPVMTEMGPVFMQNSTIGELDEPALEHDLATAKVVTAADWVAFSYHWQACYEDNAALRLILGGRVVGVPQDFLDPLVRTCYRPEQSTAQTLGRILDNYPIGMPNWWWQYRIDQIAKASVR	not soluble
VTDASVHPDELDPEYHHHGGFPEYGPASPGAGFGQFVATMRRLQDLAVAADPGDAVWDEAAERAAALVELLSPFEADEGKAPAGRTPGLPGMGSLLLPPWTVTRYGTDGVEMRGSFSRFHVGGNSAVHGGVLPLLFDHMFGMISHAAGRPISRTAFLHVDYRRITPIDVPLIVRGRVTNTEGRKAFVCAELFDSDETLLAEGNGLMVRLLPGQP	soluble
MFVRICAMFGFVSDLLTAAVSSLDELLQDTPAHQIILGTAALYFLYNQYHNPSISRWYRSRNNASMKQRIIDSAYALAKNLPGVNQIIEKELNKELSSTREKLRIQRSGMTLREEIPEEGLSPQDILSAFDVDVEKCHFDFLSVTNDSPEREFLVERGDGKDSGALYAIHPKELTELLKEVYGATALTNPLHDKWPRINAMQAEVIRWCQNLFHGSKECYGLLTHGGTTSIIEAMAAYVIRARAKGIDYPEIVVPETAHAAFKKAAELTGAILITVPVDKKTGAVNPKVMSSYITRNTAVIVGSAPSFMNGIHDPVSELGQLAKKKNVPFHVDACLGGFLTAFLDTSSEPMDFRVPGVTSISADLHKYGCCPKGTSVCLFSEDSPALSVYAALNWSGGLYATPGILDGSTSGARVAEVYATLSYYGKNKYQEIAKSIITLRNAIQKELTTLLEEGNGLTSEDIYVYGNPQWSILGFRSNTCNAHFIADELEKRGWKLNLLQNPDGFHLCLTHVHTLVKGFETQFIKDLREAVIDVKNYPPGKKPSGNVKVYGAVGMMPIELQREICKQYQKARLNYTSASPGSLRIFTNVPVEEDEGLRNRKTEKYKV	not soluble
AIALTTNASSKIFSKASTAELVGHTRKVHCLSWNPKGGLLGSGGVDCVARIWDVEKLQQKAELEGHTSSIEQLKWDPTANVFFVSASLDHKVLFWDLRARNSEPVASVETQGENINLAWSQDGVYCAVGDKDDNLSFIDVRKFDFFERFQFAEEVNEFKWSPSGPFFFMTLGKEVLVFRWPTMEQQLRLQVHADRCYCLEFDRSGRYFALGGADSIISLWETEYMLCTWTVDRLEYPIRTISFSHDGQFIAAGSEDSVIDISDILNGRQTYALGVKGATNVVAWHPSRHLLAYATEEEYSRDGVAIHLYGTISKDNI	soluble
MGSDKIHHHHHHMVNHTQFRQWGRKVIDIEKAALDNLYQYVDSVEFDQACQLIMQCKGKVIVMGMGKSGHIGNKISATFASTGTPAFFVHPGEASHGDLGALAKNDIVLAISNSGESSEILTLMPVIQRMGVPVIAVTGKPDSNMARLSKIHLCIQVQEEACPLGLAPTSSTTATLAMGDALAIALLQAKGFTRDDFALSHPGGSLGRKLLLKVDDVMHQGDDLPIVNDDICITDALYEISKKGLGMTAVVDHASKLVGIFTDGDLRRVIDADVNLRTTSIAHVMTKNCVTSPAGILAAQALQIMDEKSINGLIVVNEKHQPIGALNMLDMVKAGVI	not soluble
MAIALSTLVEEADRYLDAARIQDYCPNGLQVEGRPQVRRIVSGVTASQALLDAAVEADADVVLVHHGYFWKGENPCVVGMKQRRLKTLLNNDISLLAYHLPLDLHPEVGNNVQLARQLGFEVEGPLEPGNPRSIVLLGSLAEPMQPADFARHVRDALGREPLLVDAGQPIRRIAWCTGGAQGYIDQAIAAGVDAYLTGEVSEQTVHSARENGISFIAAGHHATERYGVQALGDYLGKRFAIEHLFIDCPNPALEHHHHHH	soluble
GPGSMGSEESNNICAYKRTISLAKIYIVLLVKTAMLRYSRLCFPKMGCEEIKRKARRVQLQPTEYLAQHRMQVWQLRFKEMGPPFSRVWVALGGKMRRRRVGRQVDVKDMRYYWRPIEPQYQRLYMSRLRIRDHSNKLRQPMRLRATNADIGSGSSSIEWERASNRKYGAMLAPPKRQDFEFRVV	not soluble
MYLTKEEEQILNGEAGETLRQAIQILVALGDIYGADRLIPIKSAQIAGVSYKTIGDAGLEWISDLEGQVKVPAILNPAGMDLEDWERLRISPEFAEKQKEIVQAYKKLGIRCECTCTPYTLEGFSVSYGDHLAWSESSAISYANSVIGARTNREGGPSALSAALLGKTANYGFHLDKNRVPEVSVSVECSLKESDYGALGYVAGKLIGNRVPIFQLRSKPEKDELKSLGAAMAASGAVALYHVKGVTPEACRMDFEEPEEKIIIERSQLDEVYESKGKEPELITIGCPHCSAAELKKAAELLKGKTVSKETWIFTSRELAERYPEYIRTIEESGAKVVCDTCMVVSPATNSYSCVMVNSGKAFAYVPGMCGAQSVYGNMEACINKATGGKERKAGDSHLEHHHHHH	not soluble
MAHHHHHHMAQNPWFVKKSKTLRTSQLEKFINKFNEEYEHLMHMTRFKYIKRTLESIKENSDLIINKKTFSILRISCVAQLQPKYLNKIDDGISVYLSNFMLKANHDVEGFCLCFNKIKLKEKESRVMNNDPSIMFVKISFKLLILVLKENYEIKAKINKIEPLKIHLDIFGIVEAIFSEDMFKDFHYDSRNNRFRREGKFFSLYDIVLFTIKKITYGDNGANVKVIGYF	not soluble
HDNYADLSDTELTTLLRRYNIPHGPVVGSTRRLYEKKIFEYETQRRR	soluble
MPQDYISYIRSKVGHDKIILNFAGGILTNDDGKVLMQLRGDKKTWTIPGGTMELGESSLETCKREFLEETGIEVEAVRLLNVYTHFEEVYPNGDAVQTIVFIYELTAVSDMAIDNFHNEETLKLQFFSHEEIAELESVSAKHRLMLEEYFSDSFAMGH	not soluble
